According to paper doi:10.1101/2024.11.26.625467:

Target: CA09 N1 sNAp (stabilized NA protein, neuraminidase head of H1N1 A/California/07/2009) (influenza A virus H1N1 A/California/07/2009)
Experiment: cryo-EM structure

CA09 N1 sNAp (stabilized NA protein, neuraminidase head of H1N1 A/California/07/2009) (domain or fragment)
stoichiometry N: 4
